Data published in patent US20250073355A1, “CD44-BINDING PEPTIDE REAGENTS AND METHODS” (THE REGENTS OF THE UNIVERSITY OF MICHIGAN, priority 2021, published 2025).
No end group written: not given here. IRDye800 = fluorophore linked at C-terminus via GGGSC linker

What was measured:
human HCC specimens = assay: Peptide validation in human HCC specimens ex vivo (immunofluorescence)
Method: A tissue microarray (TMA) of human HCC was generated to investigate specific binding by the CD44 peptide to human HCC. Formalin-fixed, paraffin-embedded (FFPE) sections of human liver were obtained from the archived tissue bank in the Department of Pathology. The specimens were washed 3× in xylene for 3 min, 100% ethanol for 3 min, 95% ethanol for 3 min, 70% ethanol for 3 min, rinsed in H2O for 2 min. Antigen unmasking was performed by boiling the slides in 10 mM sodium citrate buffer with 0.05% Tween at pH 6.0 for 15 min. The slides were cooled to RT, and were washed in H2O 3× for 5 min. Blocking was performed with DAKO protein blocking agent (X0909, DAKO) for 1 hour at RT. The peptides at 1 μM concentration were incubated for 10 min at RT. The sections were washed 3× in PBST for 3 min, and incubated with 400 μL at 1:500 dilution of recombinant anti-CD44 (#ab189524, Abcam) overnight at 4° C. The sections were then washed 3× in PBST for 5 min. A 1:500 dilution of AF488-labeled secondary antibody (goat anti rabbit Alexa Fluor®488) was added to each section and incubated for 1 hour at RT. The secondary antibody solution was removed and washed 3× with PBST for 5 min. The sections were then mounted with ProLong Gold reagent containing DAPI (Invitrogen). The fluorescence images of each specimen were collected using confocal microscopy (SP8, Leica), and the mean fluorescence intensity from each image was measured from 3 boxes with dimensions of 20×20 μm^2 using custom MATLAB software. Regions of saturated image intensities were avoided.

[1] = test system: orthotopic SK-Hep1 xenograft tumors; assay: Whole body fluorescence imaging of orthotopic human HCC xenograft tumors; settings: post intravenous injection
Method: (§1) Human HCC xenograft tumors were implanted orthotopically in female nude athymic mice. First, ˜5×10^6 SK-Hep1 tumor cells were injected subcutaneously into the hind limb flank. Tumors were then monitored twice a week and allowed to grow to 1-2 cm in diameter for 10-30 days. A small horizontal incision was made below the sternum to expose the liver. The liver was incised with a sharp scalpel horizontally in parallel with the surface of the exposed liver. A piece of the subcutaneous tumor with dimensions of ˜1×1×1 mm^3 was implanted into the incision, and then the site was sealed with absorbable hemostatic material (surgical, Johnson & Johnson). The liver was returned to its original position after confirming hemostasis.

[2] = Animal necropsy (histology, hematology); format: in vivo, mice; settings: 48 hours after systemic administration
Method: Whole blood was collected for evaluation of hematology and chemistry. Liver, kidney, heart, lung, spleen, stomach, intestine, and brain were harvested and submitted for routine histology (H&E). All slides were evaluated by a liver pathologist.

[3] = test system: orthotopic human HCC xenograft tumors (SK-Hep1); assay: Photoacoustic imaging of orthotopic human HCC xenograft tumors; settings: post intravenous injection
Method: as §1
IRDye800-labeled target and control peptides (300 μM in 200 μL PBS) were intravenously injected in mice bearing orthotopical SK-Hep1 tumors. An unlabeled peptide (1.5 mM, 100 μL) was injected 30 min prior to the labeled peptide to compete for binding. ICG (2.46 mg/kg) was injected intravenously as a control. Three-dimensional (3D) images were acquired from 0 to 48 h post injection and reconstructed using PAI tomography system (Nexus 128, Endra) using Iex=774 nm excitation. The photoacoustic signal intensity was measured from the two-dimensional (2D) maximum intensity projection (MIP) images, and the pre-injection images were used for background.
The photoacoustic images were collected to evaluate the time course for peptide uptake, FIG. 14A. […] Indocyanine green (ICG) was also administered (2.46 mg/kg) for comparison.

SK-Hep1 cells [4] = test system: SK-Hep1 cells
Method: The apparent dissociation constant kd for peptide binding to cells was measured to assess the binding affinity. IRDye800-labeled target peptides were serially diluted in PBS at concentrations of 0, 10, 20, 40, 80, 100, and 200 nM. ˜10^5 SK-Hep1 cells were incubated with the peptides at 4° C. for 1 hour, washed with cold PBS, and the mean fluorescence intensities were measured using flow cytometry. The equilibrium dissociation constant kd=1/ka was calculated by performing a least squares fit of the data to the non-linear equation l=(l0+lmaxka [X])/([…]). l0 and lmax are the initial and maximum fluorescence intensities, corresponding to no peptide and at saturation, respectively, and [X] represents the concentration of the bound peptide. Prism 5.0 software (GraphPad Inc) was used to calculate kd.

SK-Hep1 cells [5] = assay: MTT cytotoxicity assay; format: cell-based, human; settings: up to 200 μg/mL, 24 hours
Method: The CD44-binding and control peptides were serially diluted over a range of concentrations and incubated with SK-Hep1 cells seeded in 96-well plates for 24 hours. The media was then removed, and MTT solution (100 μL, 0.5 mg/mL) was added. After 4 hours for incubation, the MTT solution was removed, and 150 μL of DMSO was added to each well to solubilize formazan crystals produced by living cells. Absorbance at Aabs=570 (test) and 630 nm (reference) was measured using a plate reader (VersaMax™ Tunable Microplate Reader). The half-maximum inhibitory concentration (IC50) was measured.
An MTT assay was performed to evaluate the cytotoxicity of CD44 peptides. Peptides were incubated with SK-Hep1 cells in increasing concentrations up to 200 μg/mL for 24 hours.

[6] = test system: orthotopic human HCC xenograft tumors and major organs; assay: Peptide biodistribution in tumor-bearing mice; format: in vivo
Excerpt: The animals were euthanized at peak uptake after intravenous injection of the target and control peptides. Major organs, including heart, spleen, lung, liver, brain, stomach, kidney, intestine, were resected and exposed for white light and fluorescence imaging to measure peptide biodistribution. White light and NIR fluorescence images were collected from the major organs, FIG. 17.

SK-Hep1 cells [7] = assay: Apparent association time constant; design: species or system human; settings: binding to SK-Hep1 cells
[8] = test system: CD44 downstream signaling (pAKT, pErk1/2); assay: Western blot of CD44 downstream cell signaling; format: cell-based, human; settings: 4 or 300 μM, 15 min, SK-Hep1 cells
Method: Western blots were performed to evaluate markers for activation of downstream cell signaling, FIG. 11. SK-Hep1 cells were incubated with either hyaluronan (HA) or peptide to evaluate activation of downstream signalling after binding to CD44. […] of low molecular weight HA (GLR001, R&D Systems) was added for 15 min. Peptides are added at concentrations of 4 and 300 μM for 15 min. Anti-CD44 antibody (#ab189524, Abcam), anti-AKT (#4691, Cell Signaling), anti-phospho-AKT (#9271, Cell Signaling), anti-ERK1/2 (#ab17942, Abcam,), anti-phospho-ERK1/2 (#ab50011, Abcam), and anti-β-Actin (#4967, Cell Signaling Technology) were used per manufacturer's instructions.

[9] = Serum stability by analytical RP-HPLC; format: in vitro ADME; settings: mouse serum, up to 24 hours, read-out: half-life T1/2 in serum (converted)
SK-Hep1 cells (CD44+) = assay: Confocal fluorescence microscopy of binding to SK-Hep1 cells; format: cell-based, human
Method: The cells were washed with PBS 1× and incubated with 4 μM of either target or control peptide for 3 min. The cells were then washed 3× in PBS, fixed with 4% paraformaldehyde (PFA) for 8 min, washed 3× with PBS then incubated with 2% BSA, 1% goat serum in PBS for 30 min. […] Confocal fluorescence images were collected on Leica SP8 confocal microscope using a 63× oil-immersion objective. Fluorescence intensities were quantified using custom MATLAB (Mathworks) software.

[10] = target: T1, CD44 (Cluster of differentiation 44) (human, UniProt P16070 21-742); assay: confocal microscopy on SK-Hep1 cells
T1 construct: whole, on cells; The target is tied to CD44 by siRNA knockdown in SK-Hep1 cells; also called CD44 on human SK-Hep1 HCC cells
T1 sequence (P16070 21-742): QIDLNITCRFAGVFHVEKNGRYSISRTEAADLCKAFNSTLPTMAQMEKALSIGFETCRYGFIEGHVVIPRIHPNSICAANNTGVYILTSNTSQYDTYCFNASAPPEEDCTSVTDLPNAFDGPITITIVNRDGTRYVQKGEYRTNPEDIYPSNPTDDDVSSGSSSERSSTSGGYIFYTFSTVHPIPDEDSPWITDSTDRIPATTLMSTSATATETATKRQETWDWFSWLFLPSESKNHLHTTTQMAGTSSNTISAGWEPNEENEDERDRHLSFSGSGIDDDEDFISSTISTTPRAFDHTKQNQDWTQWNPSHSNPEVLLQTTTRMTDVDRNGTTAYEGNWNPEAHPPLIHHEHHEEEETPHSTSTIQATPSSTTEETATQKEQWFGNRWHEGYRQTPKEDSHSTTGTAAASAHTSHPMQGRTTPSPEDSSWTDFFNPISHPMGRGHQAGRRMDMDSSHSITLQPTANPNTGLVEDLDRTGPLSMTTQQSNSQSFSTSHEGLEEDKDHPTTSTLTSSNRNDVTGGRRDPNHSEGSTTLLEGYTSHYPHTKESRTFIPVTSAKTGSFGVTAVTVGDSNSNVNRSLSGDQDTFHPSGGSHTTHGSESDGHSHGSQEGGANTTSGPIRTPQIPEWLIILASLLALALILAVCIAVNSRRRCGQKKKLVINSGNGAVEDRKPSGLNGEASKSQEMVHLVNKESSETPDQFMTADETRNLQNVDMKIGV

[11] = target: T1, CD44 (Cluster of differentiation 44); assay: confocal microscopy, SK-Hep1 control siRNA against CD44 knockdown cells
CD44 = target: T2, CD44 (Homo sapiens, UniProt P16070); assay: Competitive inhibition with unlabeled peptide on SK-Hep1 cells; format: cell-based; settings: competition
T2 construct: endogenous in cells; host or cells: SK-Hep1 (human HCC cells)
T2 sequence (P16070 21-742): as above
Method: (§2) Specific peptide binding to CD44 was further validated using competitive inhibition by adding unlabeled peptide. Approximately […] SK-Hep1 cells were grown to ˜70% confluence on cover glass in triplicate. Unlabeled peptides at concentrations of 0, 10, 20, 40, 80, and 100 μM were incubated with the cells for 30 min at 4° C. The cells were washed with PBS and incubated with 5 μM of the target peptides for another 30 min at 4° C. The cells were washed and fixed with 4% PFA for 8 min. The cells were washed with PBS and mounted with ProLong Gold reagent containing DAPI (Invitrogen).

[12] = target: T1, CD44 (Cluster of differentiation 44); assay: flow cytometry on SK-Hep1 cells, labeled peptide 0-200 nM, 4 °C, 1 hour
Method: The apparent dissociation constant kd for peptide binding to cells was measured to assess the binding affinity [31]. IRDye800-labeled target peptides were serially diluted in PBS at concentrations of 0, 10, 20, 40, 80, 100, and 200 nM. ˜10⁵ SK-Hep1 cells were incubated with the peptides at 4° C. for 1 hour, washed with cold PBS, and the mean fluorescence intensities were measured using flow cytometry. The equilibrium dissociation constant kd=1/kₐ was calculated by performing a least squares fit of the data to the non-linear equation l=(l₀+lₘₐₓkₐ [X])/(l₀+kₐ[X]). l₀ and lₘₐₓ are the initial and maximum fluorescence intensities, corresponding to no peptide and at saturation, respectively, and [X] represents the concentration of the bound peptide. Prism 5.0 software (GraphPad Inc) was used to calculate kd.

[13] = target: T1, CD44 (Cluster of differentiation 44); assay: competition against 5 µM WKG*-IRDye800 on SK-Hep1 cells; first of five concentrations of unlabeled peptide (series 0, 10, 20, 40, 80, 100 µM; which five not stated)
Method: as §2

[14] = target: T1, CD44 (Cluster of differentiation 44); assay: competition against 5 µM WKG*-IRDye800 on SK-Hep1 cells; fourth of five concentrations of unlabeled peptide
Method: as §2

[15] = target: T1, CD44 (Cluster of differentiation 44); assay: competition against 5 µM WKG*-IRDye800 on SK-Hep1 cells; third of five concentrations of unlabeled peptide
Method: as §2

[16] = target: T1, CD44 (Cluster of differentiation 44); assay: competition against 5 µM WKG*-IRDye800 on SK-Hep1 cells; fifth of five concentrations of unlabeled peptide
Method: as §2

[17] = target: T1, CD44 (Cluster of differentiation 44); assay: competition against 5 µM WKG*-IRDye800 on SK-Hep1 cells; second of five concentrations of unlabeled peptide
Method: as §2

[18] = 1 μM peptide, 10 min, FFPE human sections

CC(C)C[C@H](NC(=O)[C@H](Cc1ccc(O)cc1)NC(=O)[C@H](CO)NC(=O)[C@H](Cc1c[nH]c2ccccc12)NC(=O)CNC(=O)[C@H](CCCCN)NC(=O)[C@@H](N)Cc1c[nH]c2ccccc12)C(=O)N[C@@H](Cc1c[nH]c2ccccc12)C(=O)N[C@H](C(=O)N[C@@H](CCC(N)=O)C(=O)N[C@@H](CCC(N)=O)C(=O)N[C@@H](C)C(=O)NCC(=O)NCC(=O)NCC(=O)N[C@@H](CO)C(=O)N[C@@H](CSC1CC(=O)N(CCNC(=O)CCCCCN2C(=CC=C3CCCC(C=CC4=[N+](CCCCS(=O)(=O)[O-])c5ccc(S(=O)(=O)O)cc5C4(C)C)=C3Oc3ccc(S(=O)(=O)O)cc3)C(C)(C)c3cc(S(=O)(=O)O)ccc32)C1=O)C(N)=O)[C@@H](C)O (stereo partly shown) [WKG*-IRDye800]
fluorescence intensity, HCC (mean±SD) (human HCC specimens; [18]): 1.47±0.50 | fluorescence intensity, adenoma (mean±SD) (human HCC specimens; [18]): 0.93±0.35 | fluorescence intensity, cirrhosis (mean±SD) (human HCC specimens; [18]): 0.67±0.34 | fluorescence intensity, normal human liver (mean±SD) (human HCC specimens; [18]): 0.56±0.21 | binding to the cell surface of HCC, immunofluorescence (human HCC specimens; human HCC sections): strong binding | time of return to baseline, whole body fluorescence [1]: ~24 h | acute toxicity, hematology and chemistry ([2]; n=3 mice): No acute peptide toxicity was observed | toxicity on histology (H&E) of vital organs ([2]; normal healthy mice): No signs of toxicity | time of return to baseline, photoacoustic [3]: ~24 h | improved binding affinity by comparison with previously reported CD44 peptides (SK-Hep1 cells [4]): 3 fold | Kd (SK-Hep1 cells [4]; read-out: apparent dissociation constant kd, SK-Hep1 cells, 4° C., 1 hour, flow cytometry): 43 nM | effect on cell viability (MTT) (SK-Hep1 cells [5]): no effect on cell viability until the highest concentrations were reached | intensity in adjacent normal liver region (mean±SD) ([6]; […] after intravenous injection): 0.92±0.45 | route of clearance ([6]; mouse, in vivo): primarily renal clearance | apparent association time constant (time) (SK-Hep1 cells [7]): 6.8 min | apparent association time constant k (SK-Hep1 cells [7]): 0.26 min⁻¹ | effect on CD44 downstream signaling (phosphorylation of AKT and Erk1/2) [8]: no effect | half-life [9]: 5.1 h | fluorescence intensity for binding to SK-Hep1 cells compared with Hep 3B cells (SK-Hep1 cells (CD44+); SK-Hep1 (CD44+) vs Hep 3B (CD44−)): Significantly greater | Pearson correlation coefficient ρ of binding co-localization with anti-CD44-AF488 (SK-Hep1 cells (CD44+); merged image, SK-Hep1 cell surface): 0.81

rabbit anti-CD44 antibody (EPR18668, Abcam)
fold change in fluorescence intensity relative to WYK*-IRDye800 (control) [10]: 5.61 fold | fold change in fluorescence intensity, siCL relative to siCD441 [11]: 4.1 fold | fold change in fluorescence intensity, siCL relative to siCD442 [11]: 3.3 fold | fold change in fluorescence intensity, siCL relative to siCD443 [11]: 3.1 fold

WKGWSYLWTQQA [WKG*]
change of WKG*-IRDye800 fluorescence intensities with increasing concentrations of unlabeled peptide (CD44): decreased significantly

B1: WKG*-IRDye800 (peptide)
peptide: WKGWSYLWTQQAGGGSC-IRDye800
notes: Synthetic L-amino acid peptide made by Fmoc solid-phase synthesis on rink amide MBHA resin; also called CD44-directed peptide
Kd [12]: 43 nM

B2: unlabeled WKG* (peptide)
peptide: WKGWSYLWTQQA
modifications: also: may carry GGGSC linker and C-terminal amide
notes: The m/z of 1913.87 printed for WKG* fits the 12-mer plus GGGSC with a C-terminal amide; also called unlabeled peptide
fold change of fluorescence intensity relative to an equal concentration of WYK* [13]: 1.02 fold | fold change of fluorescence intensity relative to an equal concentration of WYK* [14]: 0.12 fold | fold change of fluorescence intensity relative to an equal concentration of WYK* [15]: 0.36 fold | fold change of fluorescence intensity relative to an equal concentration of WYK* [16]: 0.1 fold | fold change of fluorescence intensity relative to an equal concentration of WYK* [17]: 0.61 fold
